From publication PMC3819411

Target: Bardet-Biedl syndrome 5 protein (BBS5), endogenous in bovine rod outer segments (bovine (endogenous in rod outer segments))
Assay: co-IP

reduction of co-precipitated Arr1 after light or phorbol ester against dark: 50%
Substance: arrestin1 (Arr1), endogenous in bovine rod outer segments (from UniProt P08168 1-404) (natural protein)
